Data as given in US20080058636A1, “METHODS OF MYOCARDIAL IMAGING” (Epix Pharmaceuticals, Inc., priority 2005, published 2008).

Tests used:
[1] = target: human collagen type I (acid soluble, extracted from placenta, Sigma C7774) (human) (UniProt P02452); assay: dried collagen assay, 5 uM each
[2] = target: rat collagen (acid soluble, type I, rat tail, Upstate 08-115) (rat) (UniProt P02454); assay: dried collagen assay, 5 uM each
rat collagen (acid soluble, type I, rat tail, Upstate 08-115) (rat), sequence (P02454 152-1207, chain 1 of 2): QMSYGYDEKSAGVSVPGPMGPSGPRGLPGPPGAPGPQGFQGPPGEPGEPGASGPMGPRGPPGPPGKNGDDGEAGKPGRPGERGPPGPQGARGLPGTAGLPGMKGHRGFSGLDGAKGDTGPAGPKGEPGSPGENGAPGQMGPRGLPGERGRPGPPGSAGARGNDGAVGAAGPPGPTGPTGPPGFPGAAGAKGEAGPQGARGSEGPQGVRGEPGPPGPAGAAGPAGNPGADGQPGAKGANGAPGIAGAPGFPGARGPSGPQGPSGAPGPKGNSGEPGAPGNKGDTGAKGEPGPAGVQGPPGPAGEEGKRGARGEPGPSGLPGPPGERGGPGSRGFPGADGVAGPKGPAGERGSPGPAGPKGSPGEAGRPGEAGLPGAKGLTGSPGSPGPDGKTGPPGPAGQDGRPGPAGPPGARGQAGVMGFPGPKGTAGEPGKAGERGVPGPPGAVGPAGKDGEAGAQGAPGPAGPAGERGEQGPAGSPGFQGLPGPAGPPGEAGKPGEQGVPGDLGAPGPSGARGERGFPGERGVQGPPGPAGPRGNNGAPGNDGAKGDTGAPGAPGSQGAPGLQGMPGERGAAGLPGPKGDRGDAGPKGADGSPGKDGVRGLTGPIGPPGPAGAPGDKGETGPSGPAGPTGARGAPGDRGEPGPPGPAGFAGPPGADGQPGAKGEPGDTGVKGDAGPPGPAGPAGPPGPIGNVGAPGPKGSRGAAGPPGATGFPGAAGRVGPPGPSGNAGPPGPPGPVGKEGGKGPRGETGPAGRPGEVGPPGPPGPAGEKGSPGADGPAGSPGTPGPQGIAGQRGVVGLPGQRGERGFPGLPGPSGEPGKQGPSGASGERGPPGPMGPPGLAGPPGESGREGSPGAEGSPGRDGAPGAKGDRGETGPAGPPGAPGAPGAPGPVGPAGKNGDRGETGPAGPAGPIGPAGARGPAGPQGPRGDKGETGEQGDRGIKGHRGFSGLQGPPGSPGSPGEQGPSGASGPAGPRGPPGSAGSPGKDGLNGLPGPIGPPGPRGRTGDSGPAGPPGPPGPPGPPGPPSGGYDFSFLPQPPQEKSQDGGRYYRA
rat collagen (acid soluble, type I, rat tail, Upstate 08-115) (rat), sequence (P02466 86-1125, chain 2 of 2, further chain): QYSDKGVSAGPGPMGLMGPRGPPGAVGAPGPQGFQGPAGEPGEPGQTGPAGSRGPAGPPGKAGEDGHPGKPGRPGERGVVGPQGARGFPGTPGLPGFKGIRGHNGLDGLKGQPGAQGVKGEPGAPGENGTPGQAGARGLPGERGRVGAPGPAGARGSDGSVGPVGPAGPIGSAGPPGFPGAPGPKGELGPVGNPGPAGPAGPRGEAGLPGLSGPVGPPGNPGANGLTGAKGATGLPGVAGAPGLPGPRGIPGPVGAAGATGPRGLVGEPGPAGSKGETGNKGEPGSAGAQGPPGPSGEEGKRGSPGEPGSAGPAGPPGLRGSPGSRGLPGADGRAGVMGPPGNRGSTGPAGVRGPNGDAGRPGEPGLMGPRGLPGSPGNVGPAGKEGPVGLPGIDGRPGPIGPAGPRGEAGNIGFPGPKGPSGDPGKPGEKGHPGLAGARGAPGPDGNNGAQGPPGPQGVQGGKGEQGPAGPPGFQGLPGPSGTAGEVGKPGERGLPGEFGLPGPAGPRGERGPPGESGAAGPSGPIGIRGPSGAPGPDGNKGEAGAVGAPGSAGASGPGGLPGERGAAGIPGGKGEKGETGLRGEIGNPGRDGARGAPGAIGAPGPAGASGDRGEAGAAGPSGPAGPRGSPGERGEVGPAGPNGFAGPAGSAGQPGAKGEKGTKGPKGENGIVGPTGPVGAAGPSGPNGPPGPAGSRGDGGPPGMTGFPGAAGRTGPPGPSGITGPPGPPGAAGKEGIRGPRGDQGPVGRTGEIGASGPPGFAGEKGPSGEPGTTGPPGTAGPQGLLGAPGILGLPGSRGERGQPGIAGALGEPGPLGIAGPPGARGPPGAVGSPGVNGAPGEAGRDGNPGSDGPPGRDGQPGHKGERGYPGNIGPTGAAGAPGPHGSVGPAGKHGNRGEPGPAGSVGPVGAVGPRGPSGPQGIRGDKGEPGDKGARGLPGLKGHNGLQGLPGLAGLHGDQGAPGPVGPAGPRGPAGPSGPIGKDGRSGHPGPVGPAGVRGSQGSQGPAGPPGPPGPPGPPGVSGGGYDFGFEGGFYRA

human collagen type I (acid soluble, extracted from placenta, Sigma C7774) (human), sequence (P02452 162-1218 limits assumed, chain 1 of 2): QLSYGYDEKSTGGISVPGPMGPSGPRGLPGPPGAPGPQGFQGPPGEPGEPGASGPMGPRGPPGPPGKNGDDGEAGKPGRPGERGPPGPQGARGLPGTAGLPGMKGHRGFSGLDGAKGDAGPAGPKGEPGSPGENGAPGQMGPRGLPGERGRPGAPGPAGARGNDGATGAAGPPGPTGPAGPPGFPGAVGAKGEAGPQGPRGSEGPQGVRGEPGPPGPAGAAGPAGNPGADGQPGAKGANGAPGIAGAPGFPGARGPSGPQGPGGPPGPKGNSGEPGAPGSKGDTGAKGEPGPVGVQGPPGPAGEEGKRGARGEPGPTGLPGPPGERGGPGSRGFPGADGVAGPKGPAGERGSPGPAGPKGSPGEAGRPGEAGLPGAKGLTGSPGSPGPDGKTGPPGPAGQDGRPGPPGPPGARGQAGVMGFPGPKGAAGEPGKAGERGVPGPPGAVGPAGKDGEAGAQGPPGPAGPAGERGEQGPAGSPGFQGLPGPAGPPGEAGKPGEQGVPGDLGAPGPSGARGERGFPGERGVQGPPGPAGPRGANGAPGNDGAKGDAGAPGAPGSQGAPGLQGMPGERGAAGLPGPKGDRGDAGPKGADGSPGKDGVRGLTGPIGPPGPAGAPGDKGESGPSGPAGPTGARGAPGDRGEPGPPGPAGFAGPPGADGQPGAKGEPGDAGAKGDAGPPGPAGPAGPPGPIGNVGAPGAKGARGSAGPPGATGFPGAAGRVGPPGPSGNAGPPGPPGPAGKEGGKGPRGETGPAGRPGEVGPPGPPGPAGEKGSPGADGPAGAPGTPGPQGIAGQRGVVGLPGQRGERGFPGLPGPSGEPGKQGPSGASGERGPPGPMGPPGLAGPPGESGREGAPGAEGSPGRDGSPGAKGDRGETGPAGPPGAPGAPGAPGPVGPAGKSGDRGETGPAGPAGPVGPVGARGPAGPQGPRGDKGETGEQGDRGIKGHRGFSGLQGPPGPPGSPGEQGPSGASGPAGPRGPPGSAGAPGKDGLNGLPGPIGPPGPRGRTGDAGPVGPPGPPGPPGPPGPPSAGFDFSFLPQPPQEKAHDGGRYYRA
human collagen type I (acid soluble, extracted from placenta, Sigma C7774) (human), sequence (P08123 80-1119 limits assumed, chain 2 of 2, further chain): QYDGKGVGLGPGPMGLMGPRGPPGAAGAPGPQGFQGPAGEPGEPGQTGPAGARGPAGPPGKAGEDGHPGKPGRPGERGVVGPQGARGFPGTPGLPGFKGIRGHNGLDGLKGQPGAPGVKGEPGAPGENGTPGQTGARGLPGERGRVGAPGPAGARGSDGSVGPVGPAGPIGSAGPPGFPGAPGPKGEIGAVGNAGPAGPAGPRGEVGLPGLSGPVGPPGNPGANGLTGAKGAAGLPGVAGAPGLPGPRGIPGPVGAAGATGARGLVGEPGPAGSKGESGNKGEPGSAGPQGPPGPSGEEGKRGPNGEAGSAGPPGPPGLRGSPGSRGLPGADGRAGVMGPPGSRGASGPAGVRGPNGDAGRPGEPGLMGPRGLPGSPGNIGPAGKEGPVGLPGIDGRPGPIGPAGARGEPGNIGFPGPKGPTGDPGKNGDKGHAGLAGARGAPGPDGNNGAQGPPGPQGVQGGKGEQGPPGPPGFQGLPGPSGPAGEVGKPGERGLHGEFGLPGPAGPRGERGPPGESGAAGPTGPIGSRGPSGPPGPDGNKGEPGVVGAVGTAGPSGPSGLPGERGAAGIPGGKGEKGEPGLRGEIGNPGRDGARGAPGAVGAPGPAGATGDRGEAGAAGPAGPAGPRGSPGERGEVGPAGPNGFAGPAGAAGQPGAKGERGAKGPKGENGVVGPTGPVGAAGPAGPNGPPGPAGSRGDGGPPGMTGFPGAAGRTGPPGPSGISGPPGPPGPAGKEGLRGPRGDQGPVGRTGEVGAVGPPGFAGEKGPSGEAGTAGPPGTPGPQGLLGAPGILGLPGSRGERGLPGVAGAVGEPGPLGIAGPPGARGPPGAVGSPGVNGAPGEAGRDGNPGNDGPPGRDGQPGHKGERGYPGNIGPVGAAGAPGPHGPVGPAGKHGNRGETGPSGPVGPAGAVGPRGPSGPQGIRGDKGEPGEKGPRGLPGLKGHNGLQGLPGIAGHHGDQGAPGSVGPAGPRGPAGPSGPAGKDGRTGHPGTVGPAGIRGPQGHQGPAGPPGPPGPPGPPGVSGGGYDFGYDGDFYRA

Row | Human binding [1] | Rat binding [2] | Binder
1 | 64% | 66% | GKWHCYTKFPHHYCVYG [Compound ID 978]
2 | 39% | 15% | GQWKCTTRFPHHYCLYG [Compound ID 956]
3 | 70% | 64% | GKWHCYTYFPHHYCVYYK [Compound ID 975]
4 | 64% | 57% | GKWHCTTYFPHYYCLYG [Compound ID 947]
5 | 42% | 39% | GQWHCKTRFPHHYCLYG [Compound ID 957]
6 | 30% | 34% | KKGQWHCTTYFPHHYCLYG [Compound ID 960]
7 | 67% | 69% | GHKWHCTTYFPHHYCLYG [Compound ID 984]
8 | 58% | 59% | GFKWHCTTYFPHHYCLYG [Compound ID 983]
9 | 73% | 81% | GYKWHCTTYFPHHYCLYG [Compound ID 981]
10 | 87% | 86% | GKWHCYTKFPHHYCVYY [Compound ID 979]
11 | 25% | 17% | GKWHCTTYFPHWYCLYG [Compound ID 948]
12 | 45% | 33% | GQWHCTTRFPKHYCLYG [Compound ID 958]
13 | 71% | 69% | GKWHCYTYFPHHYCVYGK [Compound ID 974]
14 | 20% | 10% | GKWHCTTYFPTHYCLYG [Compound ID 962]
15 | 40% | 47% | GVKWHCTTYFPHHYCLYG [Compound ID 982]
16 | 26% | 11% | GKWHCTTYFPHHVCLYG [Compound ID 965]
17 | 88% | 86% | GKWHCYTYFPYHYCLYG [Compound ID 964]
18 | 85% | 80% | GKWHCTTKFPHHYCLYY [Compound ID 980]
19 | 82% | 91% | GKWHCYTYFPYHYCVYG [Compound ID 963]
20 | 3% | 0% | GKWHCTTYFPHHFCLYG [Compound ID 972]
21 | 72% | 79% | GKWHCTTYFPHHYCLYY [Compound ID 949]
22 | 14% | 8% | GKWHCTTLFPHHVCLYG [Compound ID 966]
23 | 62% | 57% | GKWHCTTYFPHHYCLYYK [Compound ID 976]
